# Assay results reported in PMC9482650, “Quantitative fragmentomics allow affinity mapping of interactomes” (Nature Communications, 2022).
# T1: PCLO, Q9Y6V0
# T1 sequence (Q9Y6V0 4491-4600, limits assumed, looked up): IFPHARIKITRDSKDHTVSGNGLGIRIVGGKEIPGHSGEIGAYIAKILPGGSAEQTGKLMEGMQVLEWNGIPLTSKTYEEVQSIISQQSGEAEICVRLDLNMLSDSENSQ
# T2: NHERF3_4, Q5T2W1
# T2 sequence (Q5T2W1 373-468, limits assumed, looked up): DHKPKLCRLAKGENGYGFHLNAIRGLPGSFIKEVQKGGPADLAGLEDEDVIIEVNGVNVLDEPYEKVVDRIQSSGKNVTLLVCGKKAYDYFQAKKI
# T3: DFNB31_2, Q9P202
# T3 sequence (Q9P202 274-371, limits assumed, looked up): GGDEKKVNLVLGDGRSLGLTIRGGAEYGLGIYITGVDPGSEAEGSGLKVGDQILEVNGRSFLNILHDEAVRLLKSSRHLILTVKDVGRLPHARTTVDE
# T4: CARD11, Q9BXL7
# T4 sequence (Q9BXL7 662-765, limits assumed, looked up): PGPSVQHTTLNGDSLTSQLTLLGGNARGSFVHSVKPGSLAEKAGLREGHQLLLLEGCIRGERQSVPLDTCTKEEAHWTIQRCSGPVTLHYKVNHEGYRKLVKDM
# T5: LIN7A, O14910
# T5 sequence (O14910 103-200, limits assumed, looked up): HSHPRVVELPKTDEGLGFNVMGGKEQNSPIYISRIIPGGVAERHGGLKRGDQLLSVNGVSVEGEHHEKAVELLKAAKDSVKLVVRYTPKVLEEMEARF
# T6: MPP6, Q9NZW5
# T6 sequence (Q9NZW5 125-219, limits assumed, looked up): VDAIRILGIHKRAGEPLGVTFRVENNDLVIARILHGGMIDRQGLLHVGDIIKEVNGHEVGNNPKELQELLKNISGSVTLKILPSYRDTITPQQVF
# T7: MPDZ_5, O75970
# T7 sequence (O75970 695-796, limits assumed, looked up): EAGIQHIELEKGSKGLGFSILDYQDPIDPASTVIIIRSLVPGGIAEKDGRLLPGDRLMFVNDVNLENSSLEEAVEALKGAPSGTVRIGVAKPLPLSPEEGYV
# T8: NHERF3_1, Q5T2W1
# T8 sequence (Q5T2W1 4-100, limits assumed, looked up): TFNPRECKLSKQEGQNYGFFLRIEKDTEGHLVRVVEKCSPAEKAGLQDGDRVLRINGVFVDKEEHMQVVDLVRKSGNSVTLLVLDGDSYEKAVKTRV
# T9: SNTA1, Q13424
# T9 sequence (Q13424 82-180, limits assumed, looked up): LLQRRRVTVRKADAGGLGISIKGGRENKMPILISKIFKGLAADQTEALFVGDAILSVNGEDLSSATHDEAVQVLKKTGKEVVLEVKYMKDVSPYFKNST
# T10: PDZD2_2, O15018
# T10 sequence (O15018 329-429, limits assumed, looked up): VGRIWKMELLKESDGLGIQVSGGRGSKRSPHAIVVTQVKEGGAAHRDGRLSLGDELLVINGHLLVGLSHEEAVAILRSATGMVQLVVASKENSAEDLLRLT
# T11: DFNB31_3, Q9P202
# T11 sequence (Q9P202 811-907, limits assumed, looked up): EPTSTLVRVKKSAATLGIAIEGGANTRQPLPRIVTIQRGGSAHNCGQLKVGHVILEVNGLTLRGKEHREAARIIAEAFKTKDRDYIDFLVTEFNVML
# T12: SIPA1L2, Q9P2F8
# T12 sequence (Q9P2F8 945-1036, limits assumed, looked up): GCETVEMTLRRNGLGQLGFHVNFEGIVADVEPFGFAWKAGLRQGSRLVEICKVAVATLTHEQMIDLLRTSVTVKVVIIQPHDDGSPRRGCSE
# B1: RASL11B, Q9BPW5 (peptide)
# chain: SAKVRTVTSV
# B2: TRMT13, Q9NUP7 (peptide)
# chain: NHSSSPETTA
# B3: RNF146, Q9NTX7 (peptide)
# chain: PDGQCTVTEV
# B4: KIF17, Q9P2E2 (peptide)
# chain: SKSNFGSEPL
# B5: MYOZ2, Q9NPC6 (peptide)
# chain: DTTVPESEDL
# Target: DLG1_2, Q12959
# Experiment: holdup assay
# Set-up: key: below the threshold = too weak to quantify, mostly under pKd 3.1 to 4
# Details: plain residues with an end cap or a label only (N-terminal biotin on a linker: ado-ado)
row,Binder,pKd
1,B1,5.21
2,B2,below the threshold
3,B3,5.3
4,B4,below the threshold
5,B5,below the threshold

# Target: GIPC2, Q8TF65
# Experiment: holdup assay
# Set-up: key: below the threshold = too weak to quantify, mostly under pKd 3.1 to 4
# Details: plain residues with an end cap or a label only (N-terminal biotin on a linker: ado-ado)
# Chain of GIPC2, Q8TF65 (Q8TF65 112-203): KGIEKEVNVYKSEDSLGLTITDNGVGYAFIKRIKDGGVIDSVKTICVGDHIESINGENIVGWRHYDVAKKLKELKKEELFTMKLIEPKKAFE
row,Binder,pKd
1,B1,below the threshold
2,B2,below the threshold
3,B3,3.78
4,B4,below the threshold
5,B5,below the threshold

# Target: T1, PCLO, Q9Y6V0
# Experiment: holdup assay
# Set-up: key: below the threshold = too weak to quantify, mostly under pKd 3.1 to 4
# Details: plain residues with an end cap or a label only (N-terminal biotin on a linker: ado-ado)
row,Binder,pKd
1,B1,below the threshold
2,B2,below the threshold
3,B3,below the threshold
4,B4,below the threshold
5,B5,below the threshold

# Target: NHERF2_2, Q15599
# Experiment: holdup assay
# Set-up: key: below the threshold = too weak to quantify, mostly under pKd 3.1 to 4
# Details: plain residues with an end cap or a label only (N-terminal biotin on a linker: ado-ado)
# Chain of NHERF2_2, Q15599 (Q15599 142-238): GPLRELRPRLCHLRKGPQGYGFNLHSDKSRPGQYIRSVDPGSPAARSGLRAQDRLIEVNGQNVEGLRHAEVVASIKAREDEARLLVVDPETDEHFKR
row,Binder,pKd
1,B1,below the threshold
2,B2,below the threshold
3,B3,3.89
4,B4,below the threshold
5,B5,4.27

# Target: FRMPD2_3, Q68DX3
# Experiment: holdup assay
# Set-up: key: below the threshold = too weak to quantify, mostly under pKd 3.1 to 4
# Details: plain residues with an end cap or a label only (N-terminal biotin on a linker: ado-ado)
# Chain of FRMPD2_3, Q68DX3 (Q68DX3 1073-1166): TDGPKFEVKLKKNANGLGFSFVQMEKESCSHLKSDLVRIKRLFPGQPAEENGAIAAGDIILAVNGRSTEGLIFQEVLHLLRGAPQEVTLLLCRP
row,Binder,pKd
1,B1,below the threshold
2,B2,below the threshold
3,B3,below the threshold
4,B4,below the threshold
5,B5,below the threshold

# Target: T2, NHERF3_4, Q5T2W1
# Experiment: holdup assay
# Set-up: key: below the threshold = too weak to quantify, mostly under pKd 3.1 to 4
# Details: plain residues with an end cap or a label only (N-terminal biotin on a linker: ado-ado)
row,Binder,pKd
1,B1,below the threshold
2,B2,below the threshold
3,B3,below the threshold
4,B4,below the threshold
5,B5,below the threshold

# Target: DLG1_1, Q12959
# Experiment: holdup assay
# Set-up: key: below the threshold = too weak to quantify, mostly under pKd 3.1 to 4
# Details: plain residues with an end cap or a label only (N-terminal biotin on a linker: ado-ado)
row,Binder,pKd
1,B1,4.42
2,B2,below the threshold
3,B3,4.53
4,B4,below the threshold
5,B5,below the threshold

# Target: T3, DFNB31_2, Q9P202
# Experiment: holdup assay
# Set-up: key: below the threshold = too weak to quantify, mostly under pKd 3.1 to 4
# Details: plain residues with an end cap or a label only (N-terminal biotin on a linker: ado-ado)
row,Binder,pKd
1,B1,below the threshold
2,B2,below the threshold
3,B3,below the threshold
4,B4,below the threshold
5,B5,below the threshold

# Target: DLG2_3, Q15700
# Experiment: holdup assay
# Set-up: key: below the threshold = too weak to quantify, mostly under pKd 3.1 to 4
# Details: plain residues with an end cap or a label only (N-terminal biotin on a linker: ado-ado)
row,Binder,pKd
1,B1,5
2,B2,3.67
3,B3,3.68
4,B4,below the threshold
5,B5,below the threshold

# Target: T4, CARD11, Q9BXL7
# Experiment: holdup assay
# Set-up: key: below the threshold = too weak to quantify, mostly under pKd 3.1 to 4
# Details: plain residues with an end cap or a label only (N-terminal biotin on a linker: ado-ado)
row,Binder,pKd
1,B1,below the threshold
2,B2,below the threshold
3,B3,below the threshold
4,B4,below the threshold
5,B5,below the threshold

# Target: T5, LIN7A, O14910
# Experiment: holdup assay
# Set-up: key: below the threshold = too weak to quantify, mostly under pKd 3.1 to 4
# Details: plain residues with an end cap or a label only (N-terminal biotin on a linker: ado-ado)
row,Binder,pKd
1,B1,below the threshold
2,B2,below the threshold
3,B3,below the threshold
4,B4,below the threshold
5,B5,below the threshold

# Target: FRMPD2_2, Q68DX3
# Experiment: holdup assay
# Set-up: key: below the threshold = too weak to quantify, mostly under pKd 3.1 to 4
# Details: plain residues with an end cap or a label only (N-terminal biotin on a linker: ado-ado)
# Chain of FRMPD2_2, Q68DX3 (Q68DX3 944-1038): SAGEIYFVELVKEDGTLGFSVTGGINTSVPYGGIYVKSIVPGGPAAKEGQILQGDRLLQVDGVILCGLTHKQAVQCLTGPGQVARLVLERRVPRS
row,Binder,pKd
1,B1,3.97
2,B2,below the threshold
3,B3,4.44
4,B4,below the threshold
5,B5,below the threshold

# Target: T6, MPP6, Q9NZW5
# Experiment: holdup assay
# Set-up: key: below the threshold = too weak to quantify, mostly under pKd 3.1 to 4
# Details: plain residues with an end cap or a label only (N-terminal biotin on a linker: ado-ado)
row,Binder,pKd
1,B1,below the threshold
2,B2,below the threshold
3,B3,3.92
4,B4,3.66
5,B5,below the threshold

# Target: GRIP2_5, Q9C0E4
# Experiment: holdup assay
# Set-up: key: below the threshold = too weak to quantify, mostly under pKd 3.1 to 4
# Details: plain residues with an end cap or a label only (N-terminal biotin on a linker: ado-ado)
# Chain of GRIP2_5, Q9C0E4 (Q9C0E4 544-642): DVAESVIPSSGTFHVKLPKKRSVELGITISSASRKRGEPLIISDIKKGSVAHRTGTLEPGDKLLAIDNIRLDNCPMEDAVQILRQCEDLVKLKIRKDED
row,Binder,pKd
1,B1,below the threshold
2,B2,below the threshold
3,B3,below the threshold
4,B4,below the threshold
5,B5,below the threshold

# Target: GRASP, Q7Z6J2
# Experiment: holdup assay
# Set-up: key: below the threshold = too weak to quantify, mostly under pKd 3.1 to 4
# Details: plain residues with an end cap or a label only (N-terminal biotin on a linker: ado-ado)
# Chain of GRASP, Q7Z6J2 (Q7Z6J2 96-193): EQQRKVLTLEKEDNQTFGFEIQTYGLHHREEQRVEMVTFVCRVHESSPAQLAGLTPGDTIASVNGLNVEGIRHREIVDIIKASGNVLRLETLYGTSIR
row,Binder,pKd
1,B1,4.54
2,B2,below the threshold
3,B3,4.7
4,B4,below the threshold
5,B5,below the threshold

# Target: MAST1, Q9Y2H9
# Experiment: holdup assay
# Set-up: key: below the threshold = too weak to quantify, mostly under pKd 3.1 to 4
# Details: plain residues with an end cap or a label only (N-terminal biotin on a linker: ado-ado)
# Chain of MAST1, Q9Y2H9 (Q9Y2H9 962-1065): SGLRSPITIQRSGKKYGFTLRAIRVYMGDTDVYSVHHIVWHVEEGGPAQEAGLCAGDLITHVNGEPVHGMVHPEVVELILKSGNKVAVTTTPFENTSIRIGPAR
row,Binder,pKd
1,B1,4.77
2,B2,3.55
3,B3,4.8
4,B4,3.61
5,B5,4.21

# Target: GRIP2_6, Q9C0E4
# Experiment: holdup assay
# Set-up: key: below the threshold = too weak to quantify, mostly under pKd 3.1 to 4
# Details: plain residues with an end cap or a label only (N-terminal biotin on a linker: ado-ado)
# Chain of GRIP2_6, Q9C0E4 (Q9C0E4 648-740): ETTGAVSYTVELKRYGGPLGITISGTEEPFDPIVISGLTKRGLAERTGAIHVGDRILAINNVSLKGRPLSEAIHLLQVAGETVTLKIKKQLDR
row,Binder,pKd
1,B1,3.63
2,B2,below the threshold
3,B3,below the threshold
4,B4,below the threshold
5,B5,below the threshold

# Target: T7, MPDZ_5, O75970
# Experiment: holdup assay
# Set-up: key: below the threshold = too weak to quantify, mostly under pKd 3.1 to 4
# Details: plain residues with an end cap or a label only (N-terminal biotin on a linker: ado-ado)
row,Binder,pKd
1,B1,below the threshold
2,B2,below the threshold
3,B3,below the threshold
4,B4,below the threshold
5,B5,below the threshold

# Target: T8, NHERF3_1, Q5T2W1
# Experiment: holdup assay
# Set-up: key: below the threshold = too weak to quantify, mostly under pKd 3.1 to 4
# Details: plain residues with an end cap or a label only (N-terminal biotin on a linker: ado-ado)
row,Binder,pKd
1,B1,below the threshold
2,B2,below the threshold
3,B3,below the threshold
4,B4,3.94
5,B5,below the threshold

# Target: T9, SNTA1, Q13424
# Experiment: holdup assay
# Set-up: key: below the threshold = too weak to quantify, mostly under pKd 3.1 to 4
# Details: plain residues with an end cap or a label only (N-terminal biotin on a linker: ado-ado)
row,Binder,pKd
1,B1,below the threshold
2,B2,below the threshold
3,B3,4.23
4,B4,below the threshold
5,B5,below the threshold

# Target: T10, PDZD2_2, O15018
# Experiment: holdup assay
# Set-up: key: below the threshold = too weak to quantify, mostly under pKd 3.1 to 4
# Details: plain residues with an end cap or a label only (N-terminal biotin on a linker: ado-ado)
row,Binder,pKd
1,B1,4.25
2,B2,below the threshold
3,B3,4.79
4,B4,below the threshold
5,B5,below the threshold

# Target: GRID2IP_2, A4D2P6
# Experiment: holdup assay
# Set-up: key: below the threshold = too weak to quantify, mostly under pKd 3.1 to 4
# Details: plain residues with an end cap or a label only (N-terminal biotin on a linker: ado-ado)
# Chain of GRID2IP_2, A4D2P6 (A4D2P6 272-370): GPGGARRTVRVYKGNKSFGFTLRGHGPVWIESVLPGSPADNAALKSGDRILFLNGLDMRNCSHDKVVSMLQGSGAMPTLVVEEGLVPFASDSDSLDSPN
row,Binder,pKd
1,B1,4.2
2,B2,below the threshold
3,B3,4.17
4,B4,below the threshold
5,B5,below the threshold

# Target: IL16_3, Q14005
# Experiment: holdup assay
# Set-up: key: below the threshold = too weak to quantify, mostly under pKd 3.1 to 4
# Details: plain residues with an end cap or a label only (N-terminal biotin on a linker: ado-ado)
# Chain of IL16_3, Q14005 (Q14005 1107-1207): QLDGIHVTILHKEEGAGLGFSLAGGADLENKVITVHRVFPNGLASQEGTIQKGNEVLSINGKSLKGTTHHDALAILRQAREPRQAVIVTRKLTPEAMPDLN
row,Binder,pKd
1,B1,below the threshold
2,B2,below the threshold
3,B3,below the threshold
4,B4,below the threshold
5,B5,below the threshold

# Target: MAGI2_2, Q86UL8
# Experiment: holdup assay
# Set-up: key: below the threshold = too weak to quantify, mostly under pKd 3.1 to 4
# Details: plain residues with an end cap or a label only (N-terminal biotin on a linker: ado-ado)
# Chain of MAGI2_2, Q86UL8 (Q86UL8 410-522): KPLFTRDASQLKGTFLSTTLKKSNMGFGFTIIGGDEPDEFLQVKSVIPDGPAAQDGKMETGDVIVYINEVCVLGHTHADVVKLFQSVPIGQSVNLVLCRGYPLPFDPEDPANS
row,Binder,pKd
1,B1,5.92
2,B2,below the threshold
3,B3,3.86
4,B4,below the threshold
5,B5,below the threshold

# Target: T11, DFNB31_3, Q9P202
# Experiment: holdup assay
# Set-up: key: below the threshold = too weak to quantify, mostly under pKd 3.1 to 4
# Details: plain residues with an end cap or a label only (N-terminal biotin on a linker: ado-ado)
row,Binder,pKd
1,B1,below the threshold
2,B2,below the threshold
3,B3,3.99
4,B4,below the threshold
5,B5,below the threshold

# Target: T12, SIPA1L2, Q9P2F8
# Experiment: holdup assay
# Set-up: key: below the threshold = too weak to quantify, mostly under pKd 3.1 to 4
# Details: plain residues with an end cap or a label only (N-terminal biotin on a linker: ado-ado)
row,Binder,pKd
1,B1,below the threshold
2,B2,below the threshold
3,B3,below the threshold
4,B4,below the threshold
5,B5,below the threshold
